According to the supplement of paper PMC9170038:

System: MS2 coat protein
Assay: apparent KD of MS2 coat protein; higher = weaker reporter binding
Details: Eterna round: R107
Method in brief: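 Values are apparent KD, taken as the median for each design of fits to normalised binding curves from individual clusters. The designed RNA switches were transcribed on-chip from Illumina sequencing clusters and exposed to SNAP-549-labelled MS2 coat protein at twofold increasing amounts from 0.7 or 1.5 nM to 3 µM. Titration used 100 mM Tris-HCl pH 7.5, 80 mM KCl and 4 mM MgCl2, without or with constant ligand.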

[1] = input ligand: theophylline 20 uM
[2] = input ligand: theophylline 2 mM
[3] = input ligand: tryptophan 2.4 mM

Row | Sequence | apparent KD of MS2 coat protein (input ligand: arginine 13.2 mM) [nM] | apparent KD of MS2 coat protein (input ligand: none) [nM] | apparent KD of MS2 coat protein [1] [nM] | apparent KD of MS2 coat protein [2] [nM] | apparent KD of MS2 coat protein [3] [nM]
1 | CGCCGCGGGAGAAGGAGCGCGAUAACAUAACAUGAGGAUCACCCAUGUAAGAAAUUAAUCAUGCAGGUAGGUCGCUCCCGCGGCG [Same State Arginine B GF 4] | 16.3 | 19.5 | 26.5 | 23.3 | 22.5
2 | CGGUCGGUCGGCCGGUGAUUAUGGGAUGAAGGAGCGUGGGAAGCUACAGGUAGGUCGCAUCCGAAAGAUGAGGAUCACCCAUCUU [SSArg A #24Alt-Ms2 Mod] | 24.4 | 30.3 | 34.4 | 46.4 | 21.5
3 | CGGUUUGUGAUGGAUACCAGCAGAGAAAAUGUUUAUCCUAACAUGAGGAUCACCCAUGUGUGCCCUUGGCAGCUGUUGUGGGCUG [8.W] | 46 | – | 72.6 | – | 49.7
4 | CGUAUGUAGACGGCCGCCACUGGAACAAGAGGAUCACCCUUGUACAGGGUGGGACUAUCGAGAGUCAGGACCGGGUCUACAUACA [Tryp B Ex t2] | 112 | 150 | 190 | 140 | 19.7
5 | CGUGAUACUGGUAUACUCUGAAGAUCAAUUCGAGGACCGGUACGGCCGCCACUCGUUAGUAGACAUGAGGAUCACCCAUGUUAGU [theeternabot_exclusion_MS2_Trp_A_48] | 11.8 | – | 20.6 | 17.7 | –
6 | CUAAUUAUAUCGGCCGCCACUUACUCAUGAGGUAACAACAUGAGGAUCACCCAUGUUUGAGGAUCAAGGACCGGGAUAUAAUUAG [AstrosSSTry#24] | 30.5 | – | 33 | 34.9 | –
7 | CUAUAAGUACCGGUCCUCAGAUCCUCAUGACGAGGACCGGUACGGCCGCCACUCGAAACAUGAGGAUCACCCAUGUAAUAACAUU [Brourdmod22] | 18.5 | – | 30.1 | 24.9 | –
8 | CUAUAAGUACCGGUCCUCAGAUCCUCAUGACGAGGACCGGUACGGCCGCCACUCGAAACAUGAGGAUCACCCAUGUAAUAAUACC [Brourdmod16] | 17.5 | – | 47.5 | 62.6 | –
9 | CUGCCAUGCAGAGAUACCAGUGAGCUCAGAACAUGAGGAUCACCCAUGUAGGUUGCCGAUCACCCUUGGCAGCUCUGCAUGGCAG [*$+%!] | 38.7 | 30.8 | 28.4 | 10.9 | 29.6
10 | CUGUUUGUUUGGGUCUGUCAAAAGAACGAUACCAGCCGCAUUAUGGGCCCUUGGCAGCGUAGGACAUGAGGAUCACCCAUGUACG [theeternabot_exclusion_MS2_Theo_A_16] | 16 | – | 22 | – | 16.2
11 | GAACAAGGUUUCUUGUUCGGUCGCUGAGAAGGAGCGCGGUAACCCGCAGGUAGGUCGCUCAGAAAUACAUGAGGAUCACCCAUGU [Anaa] | 17.4 | 18.7 | 26.4 | 21.7 | 17.8
12 | GAAUCUACAAACGAUACCAGAUCCGGCUGCCACAUGAGGAUCACCCAUGUCUAGCGACUCAUCCCUUGGCAGCGUGUGCAUCCCG [theeternabot_sameState_MS2_Theo_B_37] | 147 | – | 612 | – | 629
13 | GAAUUAUGACGUGAUACCAGUGGUCAAUACUGGGAACUUAACAUGAGGAUCACCCAUGUCCACCCUUGGCAGCACGCUGACAAUC [theeternabot_exclusion_MS2_Theo_B_14] | 43.5 | – | 133 | – | 79.6
14 | GACCUUGCCUGAAGGAGCGAGGUAAAUAGGGUUGAGCAUACAUGAGGAUCACCCAUGUGGCCUCAGGUAGGUCGCAGGUAGGACA [Exclusion Arginine B GF30] | 97.1 | 114 | 224 | 189 | 114
15 | GACCUUGCGGGCGCCCGCAAGGUCGCGGAUACCAGCGAGGUCCAUCGCCCUUGGCAGCCGAACAUGAGGAUCACCCAUGUCGGUU [Same State - Theophylline A Attempt #5 (HarryS)] | 8.39 | – | 12.8 | – | 11
16 | GACGGCUCGACGGCCGCCACUCCCUCCGACUGAAGGCACAGUGGACAUGAGGAUCACCCAUGUCCGAGGACCGGGUCGAUCCUGG [theeternabot_sameState_MS2_Trp_B_32] | 14.5 | – | 19.3 | 18.3 | –
17 | GAGAGUGUGUGCGAAAGCACAGAUCUGGAAGGAGCGUAGAAAGAUACAGGUAGGUCGCCGGGACAUGAGGAUCACCCAUGUGUAU [ArgiA-ms2@63] | 38.9 | 37.7 | 52.6 | 35.8 | 34.2
18 | GAGCACAUGAGGAUCACCCAUGUUGGCACACGAGGACCGGUACGGCCGCCACUCGCGGCGGGAAUAACUUUGCGCAGAUGAUGGG [theeternabot_sameState_MS2_Trp_A_50] | 27.5 | 23.9 | 37.5 | 23.7 | 21.4
19 | GAGCGCGUGGACUGGCGUGCUCCGCUCCGUCGAGGACCGGUACGGCCGCCACUCGACAUGAGGAUCACCCAUGUGUGCGCUCGCG [#1 Exclusion - Tryptophan A Attempt #19 (HarryS)] | 32.9 | – | 210 | 317 | –

Row | Sequence | apparent KD of MS2 coat protein (input ligand: arginine 13.2 mM) [nM] | apparent KD of MS2 coat protein (input ligand: none) [nM] | apparent KD of MS2 coat protein [1] [nM] | apparent KD of MS2 coat protein [2] [nM] | apparent KD of MS2 coat protein [3] [nM]
20 | GAGCUGAUGUAGGCCGGAUAUCCGGGAGAUACCAGUACAGAAAUGUACCCUUGGCAGCUCUUUCUUACAUGAGGAUCACCCAUGU [Ex Theophylline A 27] | 11.5 | 13.1 | 15.4 | 19.1 | 13.4
21 | GAUCAAAGAUCACAUGAGGAUCACCCAUGUCGAGGACCGGUACGGCCGCCACUCGCGGCGGUGAAAAUAGAUACAAAGUAUCUAU [Ex_TrypA - ViennaApproves] | 40.1 | – | 83.9 | 86.1 | –
22 | GAUCUGUCGGGUGAUACCAGCCUCGGCGCGUCUCGCGCUGAACAUGAGGAUCACCCAUGUGGCCCUUGGCAGCACAUGACAAAUC [Ditere] | 189 | – | 488 | – | 598
23 | GAUGAACUAUUUGAUACCAGACUACAUGAGGAUCACCCAUGUGAGUUUAUACUUCUGUCAGUCCCUUGGCAGCAAAUAGUUUAUC [XTheo B #5] | 21.5 | – | 27.8 | – | 16.4
24 | GCAAAGUGAUCGGCCGCCACUGCAAUGCUUAAUGGAGGUCCACAUGAGGAUCACCCAUGUCUUCCCAGGACCGGGAUCUCGAGUU [theeternabot_sameState_MS2_Trp_B_3] | 59 | – | 65.5 | 72.6 | –
25 | GCAACGCUGUCGGCCGCCACUUUUACAUUGGCCGUGCUGUCUCUACAUGAGGAUCACCCAUGUGGAAGGACCGGGACAGCACACU [Arzaleer] | 21.2 | – | 39.6 | 44.7 | –
26 | GCAAUACAUGAGGAUCACCCAUGUGCAGAUACCAGAGGUGUAUGCCUCCCUUGGCAGCUGCGACGCUCUGGCAUCUUGUGGGAUG [Same State Theophylline A GF19] | 22.2 | – | 73.7 | – | 52
27 | GCACAAGAUGGAAGGAGCGCUGGAAAAGGUCACAUGAGGAUCACCCAUGUUCUCCUAACCGAGCAGGUAGGUCGCCAUCUUGUGC [SSAB NP+V+V2 #1] | 24 | 23.7 | 25.6 | 29.8 | 25.9
28 | GCACAUGAGGAUCACCCAUGUAUUACUGAAGGAGCGAGACAGAACUCAGGUAGGUCGCAGACGGCGGAAUCGCCGACGACAUGGG [Exclusion Arginine A GF23] | 20.3 | 36.7 | 66.5 | 40.7 | 27.7
29 | GCACCAGGUACGGAUACCAGCUGCCAGCGUUACAUGAGGAUCACCCAUGUGAUCUGAAGUAGCCCUUGGCAGCUGUACCUGGUGC [SSThB NP+V+V2 #4 +-Same Structure] | 96.7 | – | 207 | – | 62
30 | GCACGACAUGAGGAUCACCCAUGUGCAGAUACCAGUAAUGUAUAUUACCCUUGGCAGCUGAGUAGGUCUGGAGGGCUAUAGGUAA [Same State Theophylline A GF11] | 11.6 | 12.3 | 20.6 | 15.4 | 14.6
31 | GCAUCCUAGUCGGCCGCCACUGCAUCACCGGUCCUAGGUGAUCAACAUGAGGAUCACCCAUGUAGCAGGACCGGGACUAGGAUGC [(Trp1)-(MT)''-(MT)'-(Ms2)-(Trp2)_Design2] | 345 | 491 | 320 | 636 | 19.9
32 | GCAUCCUAGUCGGCCGCCACUGCAUGUAGAUACCUGCUACAUGAACAUGAGGAUCACCCAUGUAGCAGGACCGGGACUAGGAUGC [(Trp1)-(MT)''-(MT)'-(Ms2)-(Trp2)_Design1] | 47.4 | 58.8 | 63.6 | 69.4 | 15.5
33 | GCAUUACAUGAGGAUCACCCAUGUCUAGAUACCAGAUUUGUUUGAAUCCCUUGGCAGCUAGUGGACCACCGUACACGACAUACUA [theeternabot_sameState_MS2_Theo_A_17] | 29.8 | – | 47.1 | – | 44
34 | GCCAAAGGCUACAUGAGGAUCACCCAUGUACGAGGACCGGUACGGCCGCCACUCGUACGGCCUCCUACUGGACGGGAAACCGUCG [ETA NP+V+V2 #28] | 13.1 | 20.6 | 34.1 | 28 | 33.2
35 | GCCGCCGGUGCUUCAUUCCCUGAGCGACGGCGAGGACCGGUACGGCCGCCACUCGGCUCGGUACAUGAGGAUCACCCAUGUCUUU [theeternabot_exclusion_MS2_Trp_A_11] | 30.7 | – | 58.4 | 60.8 | –
36 | GCCGGACUUUCGGCCGCCACUGAGAGAGUCGUGUGAACAUGAGGAUCACCCAUGUAAUAUAUAUACAGGACCGGGAGGGUCCGGC [4.T] | 12.3 | 12.1 | 18.3 | 12.7 | 10.2
37 | GCUACAUGAGGAUCACCCAUGUAUGCGAGCCGAGGACCGGUACGGCCGCCACUCGCUUAACAUGAGGAUCACCCAUGUUGCUCGC [SSTA DOUBLE!!! :-D #18] | 19.7 | – | 36.2 | 28.1 | –
